Reference: the nanobody polyreactivity screen of Harvey et al. (2022)

Experiment: yeast display, Sf9 membrane polyspecificity reagent, FACS + sequencing; frameworks hold sequencing errors
Summary of the method: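 Using colony PCR, genes from sorted yeast display clones were amplified, then sequenced on MiSeq at 2 × 250 and filtered by CDR length. The clones had been stained with 10% biotinylated, detergent-solubilized Sf9 membrane reagent for 1 hour at 4 °C and sorted by FACS into low and high (top ~1%) gates on anti-HA and streptavidin fluorescence. Polyreactivity labels come from the gate of origin.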

Sequence | polyreactivity (PSR sort gate)
QVQLVESGGGLVQAGGSLRLSCAASGSTFKYNAMGWSRQAPGKERELVASISRSGGSTYYADSVKGRFTISRDNAKNTVYLQMNSQKPEDTAVYYCNVRRFVHYEYWGQGTQVTVSS | high polyreactivity
QVQLVESGGGLVQAGGSLRLSCAASGSTFVAYAMGWYRQAPGKERELVAAISSVGRTNYADSVKGRFTISRDNAKYTVYLQMNSLKPEDTAVYYCAAVYVDRRKRSYYWGQGTQVTVSS | high polyreactivity
QVQHVESRGGLVQAGGSLRLSCAASGITLPKYAMGCYRQAPGKERELAAAISRRGGITYYADSVKGRFTISRDNAKNSVYLQMNSQKPEDTAVYYCAADRTDTRGFDYWGQGTQVTVSS | high polyreactivity
QVQLVESGGGLVQAGGSLRLTCAASGRILVLNAMGWYRQAPGKERELVADITSGGSTYFADSVKGRFTISRDNAKNTVYLQMNSLKPEDTAVYYCAADWNTYPDYQQSYFVSYEYNYWGQGTQVTVSS | low polyreactivity
QVQLVESGGVLVQAGGSLRLSCASSGSTFTKYAMGWYRQAPGKERELVAAISRSGGGTYYADSVKGRFTISRDNAKNTVYLQMNSLKPEDTAVYYCNAALFRGAQFDYWGQGTQVTVSS | high polyreactivity
QVHLVESGGGLVQAGGSHRITCAASGITFVGNARGWYRQAPGKERELVAAIRWSSGRTYYADSVKGRFTISRDNAKNTVYLQMNSLKPEDTAVYYCATDYHYSQYYRFYYWGQGTQVTVSS | high polyreactivity
QVQLVESGGGLVQAGGSLRLSCAASGRTFWGYAMGWYRQAPGKERELVAAISLSGGRTNYADSVKGRFTISRDNAKNTVYLQMNSLKPEDTAVYYCAADKRPDGRMDYWGQGTQVTVSS | high polyreactivity
QVQLVESGGGLVQAGGSLRLSCAASGRIFKYHAMGWYRQAPGKERELVAAITWGGGGTYYADSVKGRFTISRDNAKNTVYLQMNSLIPEDTAVYYCNTERWGTGKLRYNYWGPGTQVTVSS | low polyreactivity
QVQLQESGGGLVQAGGSLRLSSAASGNFFDADIIGRYRQAPGKERELVASITDGGSTNYADSVKGRFTISRDDTRNTVHLQMNSLYPEDTAVYYCAAIAYPDIPTYFDYDSDYSYWGQGTQVTVSS | high polyreactivity
QVQLVESVGGLVQAGGSLRLSCAASGFTFYVYAMGWYRQAPGKERELVAAISRGGSTYYADSVKGRFTISRDNAKNTVYLQMNSLKPEDTAVYYCNRVPYVSSSKVRYSNGFDYWGQGTLVTVSS | low polyreactivity
QVQLVESGGGLLQAGGSLRLSCAASGSIFGYNAMGWYRQAPGKERELVAAISYSGGSTYYADSVKGRFPISRDNAKNTVYLQMNSLKPEDTAVYYCAKAGRYANLPYGYWGQGTQVTVSS | high polyreactivity
QVHLVESGGGLVQAGGSLRLSCAASGLIFAFYGMGWYRPAPGKERELVASIDKSGGSTYADSVKGRFTISRDNAKNTVYLQMNSLKPEDTAVSYCATNVGGGWAYEYWGQGTQVTVSS | low polyreactivity
QVQLVESGGGLVQAGGSLRLSCAASGSIFYRYAMGWYRQAPGKERELVAAISTAGSTNYADSVKGRFTISRDNAKNTVYLQINSPKPEDTAVYYCAAKSYRGRTQRSYGYWGQGTQVTVSS | low polyreactivity
QVQLGESGGGLVQAGCSLRLSCAASGSIFIAYDMGWYRQAPGKERELVAAISIIDGSTYYADSVKRRFTISRDNAKNTVYLQMNSLKPEDTAVYYCSTRVFYLYDYWGQGTQVTVSS | low polyreactivity
QVQLVESGGGLVQAGGSLRLSCAASGFTFGPNAMGWYRQAPGKEREFVAAISWSGGSTYYADSVKGRFTISRDNAKNTVYLQMNSLKPEDTAVYYCAARYRYTRSGTMGYWGQGTQVTVSS | high polyreactivity
QVQLVESGGGLVQAGGSLRLSCAASGRILRYNAMGWYRQAPGKERELVASISGNGGSTYYADSVKGRFTISRDNAKNTVYLQMNSLKPEDTAVYYCNKYYYSSRGQKEYDYWGQGTQVTVSS | low polyreactivity
QVQLVESGGGLVQAGGSLRLSCAATGRTFQFNAMGRYRQAPGKERELVAAITSNGGSTNYADSVKGRFTISRDNAKNTVYVQMNSLKPEDTAVYYSAAPRFRYYYWDMDYWGQGTQVTVSS | low polyreactivity
QVHLHESGGGLVQAGGSLRLSCAASGTISYAGPMGWYRQAPGKEREFVAGIGVGSNTNYADSVKGRYTIIRDNAKNTLYLQKNSLKTEDTAVYYCAVAGYAPLGRPYWGQGTQVTVSS | low polyreactivity
QVQLVESGGGLVQAGGSLRLSCAASGSIFIVYAMGWYRQAPGKERELVAAISWSGGSTYYADSVKGRFTISRDNAKNTVYLQMNSLNPEDTAVYYCDAKYTLPFRDVKYYSWGQGTQVTVSS | high polyreactivity
QVQLVESGGGLVQAGGSLRLSCAASGLIFPWTYAMGWYRQAPGKEREFVAAITSSDGSTYYADSVKGRFTISRDNAKNTVYLQMNSLKPEDTAVYYCAAVGWDYDWDYYYWGQGTQVTVSS | high polyreactivity
QVQLVESGGGLVQAGGSLRLSCAASGSIFVPNAMGRYRQAPGKERELVAAITSGGSTYYADSVKGRFTISRDNAKNTVYLQMNSLKPEDTAVYYCAADIGSQYFGHYDYWGQGTQVTVSS | high polyreactivity
QVQLVESGGGLVQAGGSLRLSCAASGIIFDSYAMGWYRQAPGKERELVAAITSDSGRTYYADSVKGRFTISRDNAKKTVYLQMNSLKPEDTAVYYCAKRWDGPYDYWGQGTQVTVSS | low polyreactivity

Sequence | polyreactivity (PSR sort gate)
QVQLVESGGGLVQAGGSLRLSCAASGFIFRAYTMGWYRQAPGKERELVAGITSGGSTYYADSVKGRFTISRDNAKNTVYLQMNSLKPDDTAVYYCATYYRRWTPIPYEYWGQGTQVTVSS | high polyreactivity
QVQLVESGGGLVQAGGSLRLSCAASGRIFRKYTMGWYRQAPGKERELVAAISARGGSTYYADSVKGRFTISRDNAKNTVYLQMNSLKPEDTAVYYCTTSPIGNITYRYDYWGQGTQVTVSS | high polyreactivity
QVQLVESGGGLVQAAGSLRLSCAASGSIFVRNAMGWYRQAPGKEREFVAAISWRGGTYYADSVKGRFTISRDNAKNTVYLQMNSLKPEDSAVYYCAARLYPTPGNGALGKTAWVYYWGQGTQVTVSS | low polyreactivity
QVKLLESGGGLVQSGGSLRLSCAAYAIIFRWYTMGGYRQAPGKERQLVAAISTSTGSTYYADSVKGRFTISRDNAKNTVYLQMNSLKPEDTAVYYCAADYAYWNYESYYWGQGTQVTVSS | high polyreactivity
QVQLVESGGGLVQAGGSLRLSCAASGSTFAAYVMGWYRQAPGKERELVAAISTSGGRTYYADSVKGRFTISRDNAMNTVYLQMNSLIPEDTAVYYCAKKRINSRKYDYWGQGTQVNVSS | low polyreactivity
QVQLVESGGGLVQAGGSLRLSCAASGFIFSGNAMGWYRQAPGKERELVATITTGGTTKYADSVKGRFTISRDNAKNTVYLQMNSLKPEDTAVYYFAKSWSYWYQYYYWGQGTQVTVSS | low polyreactivity
QVQLVESGGGLVQAGGSLRLSCAASGSIFYPNAMGWYRQAPGKERELVAAITVGGGRTYYADSVKGRFTISRDNAKNTVYLQMNSLKPEDTAVYYCAAQEIVRYPRFDKYDYWGQGTQVTVSS | low polyreactivity
QVQLVESGGGLVQAGGSLRLSCAASGSIFGYYAMGWYRQAPGNERELVAAISRSGGSTYYADSVKGRFTISRDNAKNTVYLQMNSLKPEDTAVYYCAADDYPYGNYYWGQGTQVTVSS | high polyreactivity
QVQLVESGGGLVQAGGSLRLSCAASGLTFPLYVMGWYRQAPGKARELVATITGGGSTTYADSVKGRFTISRDNAKNTVYFQMNSLKPEDTAVYYCAADFVFVATPLRYDYWGPGTQVTVSS | low polyreactivity
QVQLHESGGGLCRRAAASSGAASGTISFLYYMGWYRQAPGQEREFVAGINNGTTTNYADSVKGRFTNSRDNAKNTVYLQMNSLKPEDTAVYYCAVRKPYKATTASGFEYWGQGTQVTVSS | high polyreactivity
QVQLVESRGGLVQAGGSLRLSCAASGSTFYIYAMGWYRQAPGKERELVAAIDWNDGSTYYADSVKGRFTISRDNAKNTVYLQMNSLKPEDTAVYYCAAAIYIYRDGTYDYWGQGTQVTVSS | high polyreactivity
QVQLVESGGGLVQAGGRLRLSCAASGSTFYQYAMGWYRQAPGKERELVAAISKSGGSTYYADSVKGRFTISRDNAKNTVYLQMNSLKPEDTAVYYCATRWIKGRKMVYWGQGTQVTVSS | high polyreactivity
QVQLVESGGGLVQAGGSLRLSCAASGRIIGPYTMGWYRQAPGKEMEFVAAITRRGGSTYYADSVKGRFTISRDNAKNTVYLQMNSLKPEDTEVYYCAAVGQKRSLGYSWGQGTQVTVSS | low polyreactivity
QVQLVESGGGLVQAGGSLRLSCAASGLTFCPNAMGWYRQAPGKEREFVASISISGRTYYADSVKGRFTISRDNAKNTVYLLMNSLKPEDTAVYYCAARYVRSGLYRKYDYWGQGTQVTVSS | high polyreactivity
QVQLVESGGGLVQAGGCLRLSCAASGRIFTTNPMGWYRPAPGKERELVARITYSGTSTYYADSVKGRFTISRDNAMNTVYLQMNSLKPEDTAVYYCAAKVWWRKYQLLDYYYWGQGTQVTVSS | high polyreactivity
QVQLVESGGGLVQAGGSLRLSCAACGFTFQYYAMGWYRQAPGKVRELVATITTSGGNTYYADSVKGRFTISRDNAKNTVYLQMNSLKPEDTAVYYCAARSYRASSRGYVYWGQGTQVTVSS | high polyreactivity
QVQLVESGGGIVQAGGSLRLISAASGIIIDYYAMGWYRQAPGKERELVAAITSGGSTSYADSVKGRFTISRDNAKNTVYLQMNSLKAEDTAVYYCNTEPSGYESGYWGQGTLVTVSS | low polyreactivity
QVQLVESGGGLVQAGGSLRLSCAASGRTFGSYTMGWYRQAPGKERELVAAITSGGRTNYADSVKGRFTLSRDNAKNTVYLQMTSLKPEATAVYYCAAGLRGGRYRYFAYDYWGQGTQVTVSS | high polyreactivity
QVQLVESGGGLVKAGGSLRLSCAASGSMFWSYAMGWYRQAPGKERELVAAISSGGSTNYADTVKGRFTISRDNAKNTVYLQMNSLKPEDTAVYYCSARFYTTCVRRKRYDYWGQGTQVNVSS | high polyreactivity
QVQLLESGGGLVQAGGSLRLSCAASGRNFSRYAMGWYRQAPGKERELVAGITRSGTTTYYADSVKGRFTISRDNAKNTVYLQMNSLKPEDTAVYYCAAPPIRPNLYDYWGQGTQVTVSS | high polyreactivity
QVQLVESGGGLVQAGGSLRLSCAASGSIFFAYAMGRYRQAPGKERELVAAITSGVSTNYADSVKGRFTISRDNAKNTVYLQMNILKPEDTAVYFCNADFDYGFDAGVAVQVVINVYWGQGTEVTVSS | low polyreactivity
